Measured values taken from patent publication US20250179187A1, “ANTI PD-L2 ANTIBODY” (REJUVERON SENESCENCE THERAPEUTICS AG, priority 2022, published 2025).

Legend:
[1] = biological target: T1, cellular hPD-L2 expressed on CHOK-1 cells (Homo sapiens, UniProt Q9BQ51); assay: Binding of antibodies to cellular hPD-L2 on CHO-K1 cells by flow cytometry; conditions: compared to a panel of commercially available anti-PD-L2 antibodies
T1 construct: GFP; expressed in transfected cells; host or cells: CHO-K1
T1 sequence (Q9BQ51 20-273): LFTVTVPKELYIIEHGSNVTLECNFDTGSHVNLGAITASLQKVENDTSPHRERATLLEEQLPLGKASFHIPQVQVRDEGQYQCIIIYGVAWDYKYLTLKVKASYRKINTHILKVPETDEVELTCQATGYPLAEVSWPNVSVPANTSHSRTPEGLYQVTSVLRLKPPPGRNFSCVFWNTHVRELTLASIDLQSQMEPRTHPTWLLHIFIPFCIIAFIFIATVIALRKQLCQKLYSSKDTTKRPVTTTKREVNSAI
Description: CHO-K1 cells over-expressing either hPDL2-GFP or mPD-L2 GFP were detached, washed in phosphate buffered saline (PBS) and adjusted to a cell concentration of around 1 million cells in cytometry buffer (CB, PBS containing 1% […]). Around 80,000 cells were then distributed into a round-bottom 96 well plate and the plate was centrifuged for 3 minutes at 400 g at 4° C. and supernatant discarded. Appropriate antibody concentrations in 50 microliter volumes were added to the wells and incubated for 30 minutes at 6-8° C. The plate was washed 3 times with PBS and relevant secondary antibodies (either AlexaFluor 647 Goat anti-Mouse IgG (H+L) (Invitrogen A21235/lot 1915807) or AlexaFluor 647 Goat anti-Rat IgG (H+L) (Invitrogen A21247/lot 1921562) were added for 30 minutes at 4° C. Cells were again washed with PBS two times, resuspended in CB and analyzed in either the Sony ID7000 Spectral Cell analyzer (Sony) or the GALLIOS Flow Cytometer (Beckman-Coulter) was used. EC50 was calculated using the Sigmoidal 4PL equation of the GraphPad Prism-9 software.

recombinant hPD-L2 = biological target: T2, recombinant hPD-L2 (Homo sapiens, UniProt Q9BQ51); assay: ELISA with recombinant hPD-L2; assay type: binding; conditions: compared to a panel of commercially available anti-PD-L2 antibodies
T2 sequence (Q9BQ51 20-273): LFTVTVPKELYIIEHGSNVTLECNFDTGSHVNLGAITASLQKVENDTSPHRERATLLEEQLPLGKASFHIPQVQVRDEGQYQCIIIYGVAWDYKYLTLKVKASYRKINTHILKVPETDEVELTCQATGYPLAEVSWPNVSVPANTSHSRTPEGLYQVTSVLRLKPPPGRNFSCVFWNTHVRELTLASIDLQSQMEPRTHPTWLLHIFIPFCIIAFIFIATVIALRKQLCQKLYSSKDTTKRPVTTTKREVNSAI

hPD-L2/hPD-1 interaction = biological target: T3, hPD-L2/hPD-1 interaction (Homo sapiens, UniProt Q9BQ51); assay: Reporter assay, blocking of cellular hPD-L2/hPD-1 interaction (Jurkat hPD-1 / CHO-K1 hPD-L2 co-culture); assay type: cell-based; conditions: reporter in hPD-1 Jurkat cells co-cultured with hPD-L2 CHO-K1 cells; compared to MIH-18, 24F.10C12 and D7U86
T3 construct: host or cells: CHO-K1 (hPD-L2) co-cultured with Jurkat PD-1 effector cells
T3 sequence (Q9BQ51 20-273): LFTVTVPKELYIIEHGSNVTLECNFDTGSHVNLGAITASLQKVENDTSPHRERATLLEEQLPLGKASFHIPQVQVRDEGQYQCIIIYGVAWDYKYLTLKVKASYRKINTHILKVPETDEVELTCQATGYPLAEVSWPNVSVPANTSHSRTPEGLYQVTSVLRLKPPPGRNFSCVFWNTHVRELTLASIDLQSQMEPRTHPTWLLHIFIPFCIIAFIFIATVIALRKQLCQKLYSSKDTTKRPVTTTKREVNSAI
Description: Cellular blocking activity of antibodies according to the present invention was assessed by with the Promega (Southampton, Hampshire, UK) PD-1/PD-L2 blockade bioassay (Promega, Cat No. CS187131-1), which is a bioluminescent cell-based assay that is used to measure the potency and stability of antibodies and other biologics designed to block the hPD-1/PD-L2 interaction. In brief, CHO-K1 cells overexpressing hPD-L2 were thawed and plated in a 96 well plate. The following day, appropriate concentrations of antibodies were added to the wells. Jurkat PD-1 effector cells, expressing a luminescent NFAT reporter for cell activation, were subsequently thawed and added to the wells immediately. The co-culture was incubated for 6 hours and read using the SpectraMax i3× reader (Molecular Devices, Wokingham, UK). GraphPad Prism 9.0 (GraphPad Software, La Jolla, Ca) was used for the data analysis and data was plotted using a four-parameter non-linear regression model.

PyMT mammary tumor = assay: Implantable mouse PyMT mammary tumor model; assay type: in vivo; conditions: in combination with doxorubicin, up to day 49, compared to TY-25 in combination with doxorubicin
Description: 1 million PyMT cells were injected in PBS into the right mammary fat pad number 4, with an N=10 animals per treatment group. When tumors reached an average of 100 millimeter cubed on day 17 post-injection, treatment regimens were initiated. All mice were sorted into study groups based on caliper estimation of tumor burden. The mice were distributed to ensure that the mean tumor burden for all groups was within 10% of the overall mean tumor burden for the study population. The first dose of doxorubicin was administered intraperitoneally at 4 mg/kg, as well as the antibodies, all at doses of 10 mg/kg intraperitoneally, on day 17 post-implantation. Doxorubicin (MWI Animal Health, BJ0080A/NA) was administered once more on day 24 and antibodies on days 20, 24, 27, 31, 34, 38, 41. The following commercial antibodies were used in the study: anti-mouse PD-L2 (clone TY-25, Bio X Cell lot/cat 0411901. Vehicle-treated animals received only vehicle solvent for doxorubicin as a no-treatment control. Tumor volume was measured at least 2-3 times per week throughout the study with a standard caliper.

PyMT spontaneous tumors = assay: Spontaneous mouse PyMT breast tumor model with tumor immunostaining; assay type: in vivo
Description: Hemizygous transgenic PyMT mice were allowed to develop tumors to an average size of around 200 cubic millimeters, usually around 9 weeks, at which time treatment was initiated, with N=3-5 per treatment group. Doxorubicin (Aurovitas) was administered intraperitoneally once per week at 4 mg/kg and antibodies were administered every three days at a dose of 10 mg/kg during four weeks or 3 mg/kg where noted. Vehicle-treated animals received only vehicle solvent for doxorubicin as a no-treatment control. Tumors were measured with a standard caliper once per week. At the end of the study, tumors were resected and further analyzed by immunohistochemistry.
For the depleting study, the same treatment regimen described above was carried out but in combination with CD4 or CD8-depleting antibodies (BioXCell), administered on day −1, day 0 and weekly thereafter at a dose of 200 micrograms per animal.
For double SA-beta-galactosidase/PD-L2 staining, following resection, tumors were fixed in 2% paraformaldehyde and 0.2% glutaldehyde in PBS for 2 hours at room temperature. Samples were washed in PBS for 15 minutes then stained by standard procedures for SA-beta-galactosidase activity overnight. Following this, tumors were washed in PBS for 15 minutes, dehydrated in 70% ethanol and embedded in paraffin, sectioned, and stained for PDL2 with an anti-PDL2 antibody (Cell Signaling, D6L5A cat #49189) by standard immunohistochemistry techniques. To quantify the number of cells double positive for SA-beta-galactosidase and PDL2, 3 random fields from 2 mammary glands from each animal in each treatment group was analyzed with Image J software. Staining for CD3, CD4 and CD8 was also carried out by standard immunohistochemistry techniques on paraffin-embedded material and quantified according to pixel density using Image J software.

binding activity against cellular hPD-L2 [1]: superior binding activity | binding activity against recombinant hPD-L2 (recombinant hPD-L2): superior binding activity | blocking activity against cellular hPD-L2/hPD-1 interaction (hPD-L2/hPD-1 interaction): superior blocking activities
B1: VH0/VK0-mIgG1: parental murine anti-PD-L2 antibody on mIgG1 backbone; SEQ ID NO: 21/SEQ ID NO: 22 (antibody, V domains shown)
VH: QVQLQQSGAELVRPGTSVKVSCKASGYAFSNYFIEWVKQRPGQGLEWIGLNIPGSGGSNYAEKFKGKATLTADKSSSTAYMQLSSLTSEDSAVYFCARRRLPPDWYFDVWGTGTTVTVSS
VL: DVVMTQTPLSLPVSLGDQASISCRSSQSLVHSDGNTYLHWYLQKPGQSPKLLIYKVSNRFSGVPDRFSGSGSGTDFTLKISRVEAEDLGVYFCSQSTHVPWTFGGGTKLEIK
progression of tumors (PyMT mammary tumor): smaller progression of tumors | final tumor volume (PyMT spontaneous tumors; 3 mg/kg antibody with doxorubicin over four weeks, compared to doxorubicin alone or TY-25 and doxorubicin): greater reduction in final tumor volume | tumor growth (PyMT spontaneous tumors; combination with doxorubicin vs doxorubicin and mIgG1 control): inhibited tumor growth more | relative numbers of CD3+, CD8+ and CD4+ cells in PyMT spontaneous tumors (PyMT spontaneous tumors; combination with doxorubicin, compared to vehicle or doxorubicin-only treated mice (p<0.05)): increased relative numbers | inhibition of tumor progression under depleting antibodies against CD4+ cells (PyMT spontaneous tumors; doxorubicin and antibody plus CD4-depleting antibodies): only slightly relieved this inhibition | inhibition of tumor progression under depleting antibodies against CD8+ cells (PyMT spontaneous tumors; doxorubicin and antibody plus CD8-depleting antibodies): relieve the inhibition | cells double-positive for PD-L2 and SA-βGal in PyMT tumors (PyMT spontaneous tumors; immunohistochemistry, antibody co-treated with doxorubicin vs Vehicle or Doxorubicin+mIgG1 (p<0.05)): significantly lower
